Patent US20040265314A1 (Pfizer, published 2004)

Target: the molecule itself
Assay: Western blot of conditioned media, reducing against non-reducing SDS-PAGE
Method: Samples were combined with 2× SDS sample buffer with β-mercapatoethanol and boiled for 2 minutes. After boiling, the samples were loaded onto either a 4-20% gradient gel or 6% SDS gel. Gels were then transferred to nitrocellulose using an Invitrogen blotting apparatus (Invitrogen, Carlsbad, Calif.) and transfer buffer as provided by Invitrogen (Invitrogen, Carlsbad, Calif.). Gels were transferred for 2 hours at 30V under constant current. Nitrocellulose blots were blocked in 5% non-fat dry milk for 1 hour at room temperature. The blots were incubated with 0.5 μg/mL peptide polyclonal antibody overnight at 4° C. After incubation with the primary antibody, the blots were washed 3 times for 10 minutes each in washing buffer (1% Triton×100 (v/v), 0.1% SDS (w/v) in PBS, calcium and magnesium free) and then incubated for 30 minutes with mouse anti rabbit IgG conjugated to horseradish peroxidase (Santa Cruz Biotech, Santa Cruz, Calif.). The blots were washed 3 times for 10 minutes each in wash buffer and developed with the chemiluminescence reagent, ECL. (Amersham, Piscataway, N.J.). The blots were exposed to Kodak film and developed using a film developer.
The conditioned media from both COS and HEK293 transfectants were analyzed by Western blot under reducing and non-reducing conditions to assess whether CLCA1 exists as a multimer in the secreted milieu. […]

B1: human CLCA1 (Calcium Activated Chloride Channel 1) (other)
chain: NSLIQLNNNGYEGIVVAIDPNVPEDETLIQQIKDMVTQASLYLFEATGKRFYFKNVAILIPETWKTKADYVRPKLETYKNADVLVAESTPPGNDEPYTEQMGNCGEKGERIHLTPDFIAGKKLAEYGPQGRAFVHEWAHLRWGVFDEYNNDEKFYLSNGRIQAVRCSAGITGTNVVKKCQGGSCYTKRCTFNKVTGLYEKGCEFVLQSRQTEKASIMFAQHVDSIVEFCTEQNHNKEAPNKQNQKCNLRSTWEVIRDSEDFKKTTPMTTQPPNPTFSLLQIGQRIVCLVLDKSGSMATGNRLNRLNQAGQLFLLQTVELGSWVGMVTFDSAAHVQSELIQINSGSDRDTLAKRLPAAASGGTSICSGLRSAFTVIRKKYPTDGSEIVLLTDGEDNTISGCFNEVKQSGAIIHTVALGPSAAQELEELSKMTGGLQTYASDQVQNNGLIDAFGALSSGNGAVSQRSIQLESKGLTLQNSQWMNGTVIVDSTVGKDTLFLITWTTQPPQILLWDPSGQKQGGFVVDKNTKMAYLQIPGIAKVGTWKYSLQASSQTLTLTVTSRASNATLPPITVTSKTNKDTSKFPSPLVVYANIRQGASPILRASVTALIESVNGKTVTLELLDNGAGADATKDDGVYSRYFTTYDTNGRYSVKVRALGGVNAARRRVIPQQSGALYIPGWIENDEIQWNPPRPEINKDDVQHKQVCFSRTSSGGSFVASDVPNAPIPDLFPPGQITDLKAEIHGGSLINLTWTAPGDDYDHGTAHKYIIRISTSILDLRDKFNESLQVNTTALIPKEANSEEVFLFKPENITFENGTDLFIAIQAVDKVDLKSEISNIARVSLFIPPQTPPETPSPDETSAPCPNIHINSTIPGIHILKIMWKWIGELQLSIA
notes: 914 amino acids; also called hCLCA1; soluble CLCA1
  binding result: binds
